Positions count from the first letter of the chain named. Names may count otherwise.
B1: KLL(554-556)AAA: mouse Nurr1 I-box mutant, residues Lys554-Leu555-Leu556 substituted by three alanines (protein)
chain: MPCVQAQYGSSPQGASPASQSYSYHSSGEYSSDFLTPEFVKFSMDLTNTEITATTSLPSFSTFMDNYSTGYDVKPPCLYQMPLSGQQSSIKVEDIQMHNYQQHSHLPPQSEEMMPHSGSVYYKPSSPPTPSTPSFQVQHSPMWDDPGSLHNFHQNYVATTHMIEQRKTPVSRLSLFSFKQSPPGTPVSSCQMRFDGPLHVPMNPEPAGSHHVVDGQTFAVPNPIRKPASMGFPGLQIGHASQLLDTQVPSPPSRGSPSNEGLCAVCGDNAACQHYGVRTCEGCKGFFKRTVQKNAKYVCLANKNCPVDKRRRNRCQYCRFQKCLAVGMVKEVVRTDSLKGRRGRLPSKPKSPQDPSPPSPPVSLISALVRAHVDSNPAMTSLDYSRFQANPDYQMSGDDTQHIQQFYDLLTGSMEIIRGWAEKIPGFADLPKADQDLLFESAFLELFVLRLAYRSNPVEGKLIFCNGVVLHRLQCVRGFGEWIDSIVEFSSNLQNMNIDISAFSCIAALAMVTERHGLKEPKRVEELQNKIVNCLKDHVTFNNGGLNRPNYLSAAAGKLPELRTLCTQGLQRIFYLKLEDLVPPPAIIDKLFLDTLPF
B2: GKL(557-559)AAA: mouse Nurr1 I-box mutant, residues 557-559 (GKL) substituted by three alanines (protein)
chain: B1 chain with A554K, A555L, A556L, G557A, K558A, L559A
B3: PEL(560-562.)AAA: mouse Nurr1 I-box mutant, residues 560-562 (PEL) substituted by three alanines (protein)
chain: B1 chain with A554K, A555L, A556L, P560A, E561A, L562A
B4: K558A: mouse Nurr1 I-box mutant, Lys558 substituted by alanine (protein)
chain: B1 chain with A554K, A555L, A556L, K558A
B5: P560A: mouse Nurr1 I-box mutant, Pro560 substituted by alanine (protein)
chain: B1 chain with A554K, A555L, A556L, P560A
B6: E561A: mouse Nurr1 I-box mutant, Glu561 substituted by alanine (protein)
chain: B1 chain with A554K, A555L, A556L, E561A
B7: L562A: mouse Nurr1 I-box mutant, Leu562 substituted by alanine (protein)
chain: B1 chain with A554K, A555L, A556L, L562A
B8: betaRE probe (hRARbeta2 promoter RARE) (dsDNA)
DNA 1: AGCTTAAGGGGTTCACCGAAAGTTCACTCGCAT
DNA 2: ATGCGAGTGAACTTTCGGTGAACCCCTTAAGCT
B9: Gal4 DNA-binding domain fused to Nurr1 ligand-binding domain (amino acids 353-598) KLL(554-556)AAA (other, yeast;mouse, UniProt P04386 1-147, looked up)
chain: MKLLSSIEQACDICRLKKLKCSKEKPKCAKCLKNNWECRYSPKTKRSPLTRAHLTEVESRLERLEQLFLLIFPREDLDMILKMDSLQDIKALLTGLFVQDNVNKDAVTDRLASVETDMPLTLRQHRISATSSSEESSNKGQRQLTVSQDPSPPSPPVSLISALVRAHVDSNPAMTSLDYSRFQANPDYQMSGDDTQHIQQFYDLLTGSMEIIRGWAEKIPGFADLPKADQDLLFESAFLELFVLRLAYRSNPVEGKLIFCNGVVLHRLQCVRGFGEWIDSIVEFSSNLQNMNIDISAFSCIAALAMVTERHGLKEPKRVEELQNKIVNCLKDHVTFNNGGLNRPNYLSAAAGKLPELRTLCTQGLQRIFYLKLEDLVPPPAIIDKLFLDTLPF
notes: range 1-147;range 353-598; Two-hybrid bait, expressed in JEG3 cells; also called pCMX-Gal4-Nurr1-LBD derivative KLL(554-556)AAA
B10: Gal4 DNA-binding domain fused to Nurr1 ligand-binding domain (amino acids 353-598) PEL(560-562)AAA (other, yeast;mouse, UniProt P04386 1-147, looked up)
chain: B9 chain with A349K, A350L, A351L, P355A, E356A, L357A
notes: range 1-147;range 353-598; Two-hybrid bait, expressed in JEG3 cells
B11: Gal4 DNA-binding domain fused to Nurr1 ligand-binding domain (amino acids 353-598) GKL(557-559)AAA (other, yeast;mouse, UniProt P04386 1-147, looked up)
chain: B9 chain with A349K, A350L, A351L, G352A, K353A, L354A
notes: range 1-147;range 353-598; Two-hybrid bait, expressed in JEG3 cells; also called pCMX-Gal4-Nurr1-LBD derivative GKL(557-559)AAA

How the values were obtained:
[1] = system: NGFI-B response element (NBRE) reporter; test: Monomeric reporter gene activation, NBRE reporter in 293 cells (full-length receptor); type: cell-based, human; conditions: three copies of NBRE reporter, effect of the mutation vs wild-type Nurr1
Procedure: The monomeric activity was examined in 293 cells. The full-length receptor derivatives were studied using a reporter gene regulated by three copies of the NGFI-B binding site (NBRE; FIG. A).
The ability of the mutants to activate reporter gene expression as monomers were studied in human embryonic kidney 293 cells. The cells were maintained in Dulbecco's modified Eagles medium with 10% fetal calf serum. Transfections were carried out as with JEG3 cells except that a reporter regulated by three copies of the NGFI-B (nerve growth factor inducible-B)response element (Wilson et al., 1991) (NBREs) was used. The transcriptional activities of the mutated ligand-binding domains were assessed as fusions to the Gal4 DNA-binding domain and a reporter gene with four copies of the Gal4-binding sites was used. All the transfection experiments were performed in quadruplicate dishes and each experiment has been repeated at least twice with essentially identical results. The results of a representative experiment are shown.

[2] = system: Nurr1-RXR heterodimer; test: Nurr1-RXR heterodimer-mediated transactivation, βRE luciferase reporter in JEG3 cells; type: cell-based, human; conditions: βRE-tk luciferase reporter, RXR ligand SR11237 1 μM, effect of the mutation vs wild-type Nurr1
Procedure: The wild-type and mutated Nurr1 derivatives were transfected in JEG3 cells. The ability to transactivate was assessed using a luciferase reporter gene driven by three copies of the hRARβ2 promoter RARE (βRE) upstream of a thymidine kinase promoter.
The influence of the I-box mutations on Nurr1 transcriptional activity and on the ability to interact with RXR was examined as described by Perlmann and Jansson 1995, Zetterström et al. 1996, and Castro et al. 1999. Nurr1-RXR heterodimer-mediated transactivation was studied in human chorion carcinoma JEG3 cells. The cells were maintained in minimum essential medium supplemented with 10% fetal calf serum. Transfections were performed in quadruplicates in 24-well plates using the calcium phosphate precipitation method. The cells were plated 24 h prior to the transfection. Each well was transfected with 100 ng of the expression vector for the Nurr1 variants, 100 ng of a reporter plasmid, and 200 ng of βgalactoside plasmid that was used as an internal control for transfection efficiency. The luciferase reporter used was driven by three copies of the retinoid acid response element (RARE) of the human retinoid acid receptorβ2 (hRARβ2) gene promoter (βRE) upstream of the thymidine kinase promoter. 6-8 hours after transfection, the cells received fresh medium supplemented with 10% charcoal-stripped fetal calf,serum and RXR ligand (SR11237;1 μM). The cells were harvested 24 hours late and lysed. The cells extracts were assayed for luciferase and βgalactosidase activity. The ability of the Nurr1 mutants to interact with RXR was examined using the mammalian two-hybrid assay. The ligand-binding domains (amino acids 353-598; LBD) of both wild-type and mutated Nurr1 variants were cloned in frame with the yeast Gal4 DNA-binding domain (amino acids 1-147) in the pCMX-Gal4 expression vector (Perlmann and Jansson 1995). JEG3 cells were cotransfected with pCMX-Gal4-Nurr1-LBD derivatives and pCMX-VP16-RXR containing the herpes simplex VP16 trans-activation domain followed by the complete coding sequence of human RXRα. A reporter gene with four copies of the Gal4-binding sites was used.

[3] = target: Nurr1 P560A + RXR (Mus musculus / Homo sapiens?, UniProt Q06219;P19793 Q06219:1-598,P19793:1-462, Nurr1 P560A); test: EMSA; no heterodimer on DNA; monomeric binding retained; conditions: label: 32P (Klenow fill-in)
Procedure: (§1) The DNA-binding experiments were carried out as described by Castro et al. 1999. Briefly, Nurr1 and RXR proteins for gel mobility shift assays were produced by coupled in vitro transcription and translation in reticulocyte lysates according to the manufacturer's instructions (TNT Quick Coupled Trans cription/Translation System™; Promega). The proteins were incubated in a binding buffer containing 10 mM Tris (pH 8.0), 40 mM KCI, 0.05% NP-40, 6% glycerol, 1 mM DTT, 0.2mg poly(dI-dC) and protease inhibitors. βRE-probe (agcttaagg[…]ctcgcat; SEQ ID NO:9) was labelled with ³²P by fill-in reaction using Klenow fragment. After addition of the probe, the reactions were incubated on ice for 20 min. Protein-DNA complexes were resolved by electrophoresis on 4% non-denaturating polyacrylamide gel in 0.5×TBE. After electrophoresis, the gels were dried for autoradiography.

[4] = target: Nurr1 PEL(560-562)AAA + RXR (Mus musculus / Homo sapiens?, UniProt Q06219;P19793 Q06219:1-598,P19793:1-462, Nurr1 P560A,E561A,L562A); test: as above; conditions: label: 32P (Klenow fill-in)
Procedure: as §1

[5] = target: Nurr1 wild type/RXR heterodimer (Mus musculus / Homo sapiens?, UniProt Q06219;P19793 Q06219:1-598,P19793:1-462); test: EMSA; heterodimer; 10 mM Tris pH 8.0, 40 mM KCl, poly(dI-dC), on ice; conditions: label: 32P (Klenow fill-in)
Procedure: as §1

[6] = target: Nurr1 KLL(554-556)AAA (Mus musculus, UniProt Q06219 Q06219:1-598, K554A,L555A,L556A); test: EMSA; monomeric DNA binding not influenced; betaRE is the only probe described; conditions: label: 32P (Klenow fill-in)
Procedure: as §1

[7] = target: Nurr1 P560A (Mus musculus, UniProt Q06219 Q06219:1-598, P560A); test: as above; conditions: label: 32P (Klenow fill-in)
Procedure: as §1

[8] = target: Nurr1 PEL(560-562)AAA (Mus musculus, UniProt Q06219 Q06219:1-598, P560A,E561A,L562A); test: as above; conditions: label: 32P (Klenow fill-in)
Procedure: as §1

[9] = target: Nurr1 GKL(557-559)AAA (Mus musculus, UniProt Q06219 Q06219:1-598, G557A,K558A,L559A); test: as above; conditions: label: 32P (Klenow fill-in)
Procedure: as §1

[10] = target: T1, VP16-RXR (herpes simplex VP16 trans-activation domain followed by the complete coding sequence of human RXRα) (herpes simplex; human, UniProt P19793 1-462); test: mammalian two-hybrid assay, JEG3 cells
T1 construct: Two-hybrid prey, expressed in JEG3 cells; also called pCMX-VP16-RXR
T1 sequence: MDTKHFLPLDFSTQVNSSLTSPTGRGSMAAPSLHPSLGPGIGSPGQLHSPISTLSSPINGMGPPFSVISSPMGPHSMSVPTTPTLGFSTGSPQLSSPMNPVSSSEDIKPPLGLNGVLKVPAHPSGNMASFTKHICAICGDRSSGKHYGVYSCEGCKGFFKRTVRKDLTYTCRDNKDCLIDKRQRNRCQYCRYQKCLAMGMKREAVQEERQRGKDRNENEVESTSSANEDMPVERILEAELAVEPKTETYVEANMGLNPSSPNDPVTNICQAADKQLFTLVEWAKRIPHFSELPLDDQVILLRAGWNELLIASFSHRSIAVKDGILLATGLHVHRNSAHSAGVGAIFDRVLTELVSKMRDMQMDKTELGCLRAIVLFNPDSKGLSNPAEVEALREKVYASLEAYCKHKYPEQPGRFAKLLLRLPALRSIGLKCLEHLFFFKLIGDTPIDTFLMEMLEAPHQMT

Molecule | ability to activate reporter gene expression as monomers (monomeric activity) [1] | ability of Nurr1 to promote RXR-mediated transactivation [2] | other results
B1 | intact | abolished | –
B2 | intact | abolished | –
B3 | intact | abolished | –
B4 | – | only a modest effect | –
B5 | no effect | abolished | –
B6 | – | no effect | –
B7 | – | reduced | –
B8 | – | – | binding result [3]: no binding; binding result [4]: no binding; binding result [5]: binds; binding result [6]: binds; binding result [7]: binds; binding result [8]: binds; binding result [9]: binds
B9 | – | – | binding result [10]: no binding
B10 | – | – | binding result [10]: no binding
B11 | – | – | binding result [10]: no binding

From patent publication US20040076995A1, “Nurr1 transcription factor 1-box mutants having monomeric transcriptional activation activity” (priority 2001, published 2004)
